Where “and” joins values, the source holds several entries; their conditions need not be identical. Identical values can stand only once.
Legend:
[1] = molecular target: NP2 CC2 (construct consisting of only the CC2 region of NP2) (human) (UniProt P47972); test: mass photometry; Two^MP, 200 nM NP, 10 mM Hepes-NaOH pH 7.4, 150 mM NaCl, without CaCl2, 25 °C
[2] = molecular target: NP2 CC2 (construct consisting of only the CC2 region of NP2) (human) (UniProt P47972); test: mass photometry; Two^MP, 200 nM NP, 10 mM Hepes-NaOH pH 7.4, 150 mM NaCl, with 3 mM CaCl2, 25 °C
[3] = molecular target: T1, GluA4 ATD (amino-terminal domain of human GluA4), recombinant (human, UniProt P48058 21-402); test: SPR; Biacore T200; GluA4 ATD (~400 RU) amine-coupled on CM5, NP2 constructs as analytes (31.25-2000 nM NP2 N- and NP2 PTX, 62.5-4000 nM NP2 CC2); 10 mM Hepes-NaOH pH 7.4, 150 mM NaCl, 0.005% Tween-20, with 3 mM CaCl2; conditions: both partners purified
T1 construct: AMPA-type glutamate receptor subunit GluA4, human, amino-terminal domain (ATD); source: Expi293 cells, secreted, purified (Ni-NTA, SEC)
T1 sequence (looked up): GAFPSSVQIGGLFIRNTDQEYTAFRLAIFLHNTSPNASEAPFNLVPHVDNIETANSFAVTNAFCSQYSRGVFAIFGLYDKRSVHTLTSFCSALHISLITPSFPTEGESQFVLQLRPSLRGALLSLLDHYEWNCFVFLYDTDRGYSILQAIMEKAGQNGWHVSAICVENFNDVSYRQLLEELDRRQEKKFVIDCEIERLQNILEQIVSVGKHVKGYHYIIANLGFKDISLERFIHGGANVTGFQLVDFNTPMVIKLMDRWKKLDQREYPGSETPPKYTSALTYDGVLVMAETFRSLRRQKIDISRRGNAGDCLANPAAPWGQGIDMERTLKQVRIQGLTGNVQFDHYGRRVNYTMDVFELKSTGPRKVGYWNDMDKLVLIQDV

VHH N1 (alpaca) [4] = test: ITC; iTC200; 50 μM NP2 PTX from the syringe into 5 μM VHH N1 in the cell; 10 mM Hepes-NaOH pH 7.4, 150 mM NaCl, 0 mM CaCl2, 25 °C
VHH N1 (alpaca) [5] = test: ITC; iTC200; 50 μM NP2 PTX from the syringe into 5 μM VHH N1 in the cell; 10 mM Hepes-NaOH pH 7.4, 150 mM NaCl, 3 mM CaCl2, 25 °C
[6] = molecular target: T2, NP2 N- (neuronal pentraxin 2 in which CC1 was deleted) (human); test: mass photometry; Two^MP, 200 nM NP, 10 mM Hepes-NaOH pH 7.4, 150 mM NaCl, with 3 mM CaCl2, 25 °C; conditions: both partners purified
T2 chain: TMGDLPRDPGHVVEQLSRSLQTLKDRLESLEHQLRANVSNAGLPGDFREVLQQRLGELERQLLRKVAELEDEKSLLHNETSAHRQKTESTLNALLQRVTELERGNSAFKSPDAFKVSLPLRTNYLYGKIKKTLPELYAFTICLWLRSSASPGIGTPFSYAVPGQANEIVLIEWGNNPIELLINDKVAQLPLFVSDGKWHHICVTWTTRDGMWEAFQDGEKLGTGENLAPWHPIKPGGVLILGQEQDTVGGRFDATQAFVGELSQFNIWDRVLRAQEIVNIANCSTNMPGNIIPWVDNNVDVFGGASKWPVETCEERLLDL

[7] = molecular target: T2, NP2 N- (neuronal pentraxin 2 in which …); test: mass photometry; Two^MP, 200 nM NP, 10 mM Hepes-NaOH pH 7.4, 150 mM NaCl, without CaCl2, 25 °C; conditions: both partners purified
[8] = molecular target: T3, NPR PTX (pentraxin domain of neuronal pentraxin receptor) (human, UniProt O95502); test: SPR; Biacore 8K; NP1 PTX or NPR PTX (~600 RU) amine-coupled on CM5, VHH N1 analyte 625-10,000 nM, multicycle kinetics; 10 mM Hepes-NaOH pH 7.4, 150 mM NaCl, 0.005% Tween-20, 3 mM CaCl2, 25 °C; conditions: both partners purified
T3 construct: neuronal pentraxin receptor (NPR, Nptxr), human, pentraxin (PTX) domain; also called PTX domain of NPR; source: Expi293 cells, secreted, purified (Ni-NTA, SEC)

[9] = molecular target: T4, NP1 PTX (pentraxin domain of neuronal pentraxin 1) (human, UniProt Q15818); test: as above; conditions: both partners purified
T4 construct: neuronal pentraxin 1 (NP1, Nptx1), human, pentraxin (PTX) domain; also called PTX domain of NP1; source: Expi293 cells, secreted, purified (Ni-NTA, SEC)

[10] = molecular target: NP2 N- (neuronal pentraxin 2 in which CC1 was deleted) (human); test: mass photometry; Two^MP; equal amounts of VHH N1 and NP2 N- or NP2 C95S, 200 nM each (as monomer); 10 mM Hepes-NaOH pH 7.4, 150 mM NaCl, without CaCl2, 25 °C
[11] = molecular target: NP2 C95S (full-length NP2 with cysteine 95 mutated to serine) (human) (UniProt P47972); test: as above
NP2 PTX D407A = molecular target: T5, NP2 PTX D407A (human, UniProt P47972, D407A); test: SPR; Biacore 8K; NP2 PTX single alanine mutants (~800 RU) amine-coupled on CM5, VHH N1 analyte 1.25-20 nM (D407A) or 62.5-1000 nM (V412A, W419A); 10 mM Hepes-NaOH pH 7.4, 150 mM NaCl, 0.005% Tween-20, 3 mM CaCl2; conditions: both partners purified
T5 construct: neuronal pentraxin 2 (NP2, Nptx2), human, pentraxin (PTX) domain with D407A; also called D407A_(NP2 PTX); source: Expi293 cells, secreted, purified (same procedure as NP2 PTX WT)

[12] = molecular target: NP2 N- (neuronal pentraxin 2 in which CC1 was deleted) (human); test: SPR; Biacore 8K; NP2 N- or NP2 PTX amine-coupled on CM5, VHH N1 analyte 5-80 nM, single-cycle kinetics; 10 mM Hepes-NaOH pH 7.4, 150 mM NaCl, 0.005% Tween-20, without CaCl2, 25 °C
[13] = molecular target: T6, NP2 PTX (pentraxin domain of neuronal pentraxin 2) (human) (UniProt P47972); test: as above
T6 sequence: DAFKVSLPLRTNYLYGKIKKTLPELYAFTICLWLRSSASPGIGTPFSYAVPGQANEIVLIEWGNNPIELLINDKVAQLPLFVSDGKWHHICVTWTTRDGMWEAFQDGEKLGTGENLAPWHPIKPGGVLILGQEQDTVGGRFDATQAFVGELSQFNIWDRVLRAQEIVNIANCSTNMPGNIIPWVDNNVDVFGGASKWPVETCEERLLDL

[14] = molecular target: NP2 N- (neuronal pentraxin 2 in which CC1 was deleted) (human); test: SPR; Biacore 8K; NP2 N- (~800 RU) or NP2 PTX (~600 RU) amine-coupled on CM5, VHH N1 analyte 1.25-20 nM, single-cycle kinetics; 10 mM Hepes-NaOH pH 7.4, 150 mM NaCl, 0.005% Tween-20, 3 mM CaCl2, 25 °C
[15] = molecular target: T6, NP2 PTX (pentraxin domain of neuronal pentraxin 2) (human); test: as above
[16] = molecular target: T6, NP2 PTX (pentraxin domain of neuronal pentraxin 2) (human); test: SPR; competition; Biacore T200; GluA4 ATD (~800 RU) amine-coupled on CM5, 500 nM NP2 PTX mixed with 0-1000 nM VHH N1 as analyte; 10 mM Hepes-NaOH pH 7.4, 150 mM NaCl, 3 mM CaCl2, 0.005% Tween-20
[17] = molecular target: T7, HA-NP2 (HA-tagged mouse full-length NP2) (Mus musculus, UniProt O70340); test: immunostaining of cells or tissue; HEK293 cells expressing HA-tagged mouse NPs, fixed with 4% paraformaldehyde, permeabilized, stained with 1 μg/ml VHH N1, detected by rabbit anti-His; anti-HA as expression control; conditions: one partner purified
T7 construct: source: HEK293, transfected, in fixed cells; HEK293 tSA cells, cell supernatant; not shown: HA, N-terminal, kept

T4 sequence (Q15818 226-428): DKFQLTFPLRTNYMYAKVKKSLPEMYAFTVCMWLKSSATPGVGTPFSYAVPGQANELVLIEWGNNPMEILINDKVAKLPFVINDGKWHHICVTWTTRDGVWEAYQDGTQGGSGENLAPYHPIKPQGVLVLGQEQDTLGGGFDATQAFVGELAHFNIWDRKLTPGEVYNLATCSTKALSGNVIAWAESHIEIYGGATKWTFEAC
T3 sequence (O95502 292-494): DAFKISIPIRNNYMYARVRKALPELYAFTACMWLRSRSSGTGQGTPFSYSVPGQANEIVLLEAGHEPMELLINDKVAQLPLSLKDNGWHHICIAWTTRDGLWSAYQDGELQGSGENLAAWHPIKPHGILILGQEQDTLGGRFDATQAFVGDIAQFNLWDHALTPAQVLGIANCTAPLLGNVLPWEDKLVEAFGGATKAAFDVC

Question: For “NP2 CC2 (construct consisting of only the CC2 region of NP2) (from UniProt P47972 16-431) (domain or fragment)”, which stoichiometry N [1] is on record?
Answer: The stoichiometry N was > 3.

Question: What about the stoichiometry N [2] of the same molecule?
Answer: The stoichiometry N was > 3.

B1: NP2 PTX (pentraxin domain of neuronal pentraxin 2) (domain or fragment, human)
chain: DAFKVSLPLRTNYLYGKIKKTLPELYAFTICLWLRSSASPGIGTPFSYAVPGQANEIVLIEWGNNPIELLINDKVAQLPLFVSDGKWHHICVTWTTRDGMWEAFQDGEKLGTGENLAPWHPIKPGGVLILGQEQDTVGGRFDATQAFVGELSQFNIWDRVLRAQEIVNIANCSTNMPGNIIPWVDNNVDVFGGASKWPVETCEERLLDL
notes: neuronal pentraxin 2 (NP2, Nptx2), human, pentraxin (PTX) domain; also called NP2 PTX WT; PTX domain of NP2; source: Expi293 cells, secreted, purified (Ni-NTA, SEC)
Question: How did the Kd [3] turn out when B1 was run?
Answer: The Kd was 13.6 µM.

Question: And the Kd (VHH N1 (alpaca) [4])?
Answer: Its Kd is 57.5 nM.

Question: What about the dH (VHH N1 (alpaca) [4]) of the same molecule?
Answer: The dH was -7.53 kcal/mol.

Question: What about the stoichiometry N (VHH N1 (alpaca) [4]) of the same molecule?
Answer: The stoichiometry N was 0.781.

Question: And the Kd (VHH N1 (alpaca) [5])?
Answer: The Kd was 19.7 nM.

Question: What about the dH (VHH N1 (alpaca) [5]) of the same molecule?
Answer: Its dH is -7.36 kcal/mol.

Question: And the stoichiometry N (VHH N1 (alpaca) [5])?
Answer: The stoichiometry N was 0.913.

B2: NP2 N- (neuronal pentraxin 2 in which CC1 was deleted) (domain or fragment)
chain: TMGDLPRDPGHVVEQLSRSLQTLKDRLESLEHQLRANVSNAGLPGDFREVLQQRLGELERQLLRKVAELEDEKSLLHNETSAHRQKTESTLNALLQRVTELERGNSAFKSPDAFKVSLPLRTNYLYGKIKKTLPELYAFTICLWLRSSASPGIGTPFSYAVPGQANEIVLIEWGNNPIELLINDKVAQLPLFVSDGKWHHICVTWTTRDGMWEAFQDGEKLGTGENLAPWHPIKPGGVLILGQEQDTVGGRFDATQAFVGELSQFNIWDRVLRAQEIVNIANCSTNMPGNIIPWVDNNVDVFGGASKWPVETCEERLLDL
modifications: Exact start is not in the text (Figures 1B and S1); it is set by convention just after CC1 and its Cys95, keeping CC2, PTX and the native C-terminus. Human is inferred from the D407/V412/W419 …
Question: What does the source list for B2?
Answer: stoichiometry N [6]: 9 and 12; stoichiometry N [7]: 6 and 3

B3: VHH N1 (VHH)
VHH: QLQLVESGGGLVQAGDSLKLSCIDSGSTFNLYAMGWFRQAPGKEREFVASISRGGGSSYYADSQLKGRFTISRDNAKNTVYLQMNSLKPEDTAVYYCNARAGRYDYWGQGTQVTVSS
notes: selected by phage display from an immune library of an alpaca immunized with NP2 N-; Cloned into the pRA2 vector with a C-terminal His-tag; detected by anti-His in the cell staining; also called N1 VHH; VHH for NP2; source: E. coli BL21 (DE3), purified (Ni-NTA, SEC); not shown: His-tag, C-terminal, kept
Question: Does B3 bind [8]?
Answer: Result: no binding (tested: 10,000 nM)

Question: Does B3 bind [9]?
Answer: Result: no binding (tested: 10,000 nM)

Question: And the stoichiometry N [10]?
Answer: Its stoichiometry N is 1.

Question: What about the stoichiometry N [11] of the same molecule?
Answer: The stoichiometry N was 1.

Question: What about the “fold change of affinity against NP2 PTX WT” value (NP2 PTX D407A) of the same molecule?
Answer: Its value is 3 times lower.

Question: And the Kd [12]?
Answer: The Kd was 33.5 nM.

Question: What about the koff [12] of the same molecule?
Answer: The koff was 0.00514 s⁻¹.

Question: And the kon [12]?
Answer: Its kon is 156000 M⁻¹ s⁻¹.

Question: And the Kd [13]?
Answer: The Kd was 11.6 nM.

Question: What about the koff [13] of the same molecule?
Answer: The koff was 0.0249 s⁻¹.

Question: What about the kon [13] of the same molecule?
Answer: Its kon is 2.21e+06 M⁻¹ s⁻¹.

Question: And the Kd [14]?
Answer: The Kd was 1.41 nM.

Question: And the koff [14]?
Answer: The koff was 0.00524 s⁻¹.

Question: And the kon [14]?
Answer: The kon was 3.7e+06 M⁻¹ s⁻¹.

Question: What about the Kd [15] of the same molecule?
Answer: The Kd was 1.14 nM.

Question: And the koff [15]?
Answer: Its koff is 0.00208 s⁻¹.

Question: What about the kon [15] of the same molecule?
Answer: The kon was 1.92e+06 M⁻¹ s⁻¹.

Question: And the IC50 [16]?
Answer: Its IC50 is 216 nM.

Question: Does B3 bind [17]?
Answer: Result: binds

Source: publication PMC12799932, “Development of a VHH that inhibits the binding of neuronal pentraxin 2 to a postsynaptic glutamate receptor, AMPAR” (The Journal of Biological Chemistry, 2025)
